# Results from the supplement of paper PMC9112550, “Optimization of the antimicrobial peptide Bac7 by deep mutational scanning” (BMC Biology, 2022).
# System: Escherichia coli TOP10
# Assay: shrunken log2 fold change of peptide-encoding DNA abundance (4.5 h post-induction vs induction); higher = less antimicrobial activity (less host growth inhibition)
# Settings: time post-induction: 4.5 h; library: site-saturation at positions 5, 18, 19, 20
# 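Further: peptides expressed intracellularly from a pBAD plasmid library in pooled LB shake-flask culture, induced with 0.3% L-arabinose, DNA abundance read by NGS, three biological replicates, DESeq2 with apeglm shrinkage.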
row,Sequence,shrunken log2 fold change
1,RRIRRRPPRLPRPRPRPWCYPRP,-0.439
2,RRIRVRPPRLPRPRPRPKCTPRP,-0.0595
3,RRIRMRPPRLPRPRPRPEMMPRP,0.316
4,RRIRCRPPRLPRPRPRPKYGPRP,0.0136
5,RRIRPRPPRLPRPRPRPDTPPRP,0.0412
6,RRIRCRPPRLPRPRPRPHPRPRP,0.444
7,RRIRMRPPRLPRPRPRPDGDPRP,0.0211
8,RRIRFRPPRLPRPRPRPYNPPRP,-0.237
9,RRIRGRPPRLPRPRPRPPWPPRP,0.871
10,RRIRPRPPRLPRPRPRPWKTPRP,-0.225
11,RRIRYRPPRLPRPRPRPCHIPRP,-0.0462
12,RRIRSRPPRLPRPRPRPAAIPRP,2.36
13,RRIRQRPPRLPRPRPRPLKIPRP,-0.141
14,RRIRSRPPRLPRPRPRPCEAPRP,0.389
15,RRIRKRPPRLPRPRPRPTVCPRP,0.765
16,RRIRWRPPRLPRPRPRPDFFPRP,0.204
17,RRIRVRPPRLPRPRPRPEHEPRP,-0.12
18,RRIRARPPRLPRPRPRPPDDPRP,1.2
19,RRIRKRPPRLPRPRPRPCATPRP,0.242
20,RRIRGRPPRLPRPRPRPQIYPRP,0.185

row,Sequence,shrunken log2 fold change
1,RRIRIRPPRLPRPRPRPSGEPRP,-0.246
2,RRIRRRPPRLPRPRPRPFHDPRP,-0.307
3,RRIRRRPPRLPRPRPRPKKFPRP,-0.205
4,RRIRIRPPRLPRPRPRPLDYPRP,-0.504
5,RRIRERPPRLPRPRPRPHEFPRP,-0.0591
6,RRIRYRPPRLPRPRPRPNRVPRP,-0.172
7,RRIRIRPPRLPRPRPRPMDTPRP,0.0627
8,RRIRIRPPRLPRPRPRPGIDPRP,-0.00862
9,RRIRTRPPRLPRPRPRPGEVPRP,0.211
10,RRIRSRPPRLPRPRPRPDCIPRP,-0.163
11,RRIRPRPPRLPRPRPRPWHIPRP,-0.0921
12,RRIRPRPPRLPRPRPRPEPRPRP,1.05
13,RRIRERPPRLPRPRPRPPFVPRP,0.072
14,RRIRARPPRLPRPRPRPVMMPRP,0.0914
15,RRIRARPPRLPRPRPRPNCAPRP,0.567
16,RRIRNRPPRLPRPRPRPDQYPRP,-0.337
17,RRIRMRPPRLPRPRPRPQIEPRP,0.277
18,RRIRARPPRLPRPRPRPRDQPRP,0.499
19,RRIRTRPPRLPRPRPRPMAKPRP,0.0153
20,RRIRVRPPRLPRPRPRPTGCPRP,0.0918

row,Sequence,shrunken log2 fold change
1,RRIRQRPPRLPRPRPRPLLKPRP,-0.321
2,RRIRYRPPRLPRPRPRPNCLPRP,-0.942
3,RRIRDRPPRLPRPRPRPGCNPRP,0.0955
4,RRIRNRPPRLPRPRPRPSLDPRP,-0.258
5,RRIRARPPRLPRPRPRPSEAPRP,0.52
6,RRIRGRPPRLPRPRPRPMWSPRP,0.89
7,RRIRHRPPRLPRPRPRPFPQPRP,3.88
8,RRIRDRPPRLPRPRPRPECYPRP,-0.00335
9,RRIRTRPPRLPRPRPRPAVWPRP,0.556
10,RRIRTRPPRLPRPRPRPVNRPRP,-0.0356
11,RRIRKRPPRLPRPRPRPYRPPRP,0.0318
12,RRIRARPPRLPRPRPRPGSMPRP,0.135
13,RRIRHRPPRLPRPRPRPESYPRP,-0.012
14,RRIRLRPPRLPRPRPRPPPNPRP,1.18
15,RRIRTRPPRLPRPRPRPPKAPRP,0.0856
16,RRIRKRPPRLPRPRPRPMGHPRP,0.000751
17,RRIRVRPPRLPRPRPRPCEPPRP,0.137
18,RRIRPRPPRLPRPRPRPEWAPRP,2.06
19,RRIRRRPPRLPRPRPRPWFQPRP,-0.0671
20,RRIRGRPPRLPRPRPRPETDPRP,1.34
